B1: Transcription-repair-coupling factor (Escherichia coli (strain K12)), P30958 (parent)
chain: MPEQYRYTLPVKAGEQRLLGELTGAACATLVAEIAERHAGPVVLIAPDMQNALRLHDEISQFTDQMVMNLADWETLPYDSFSPHQDIISSRLSTLYQLPTMQRGVLIVPVNTLMQRVCPHSFLHGHALVMKKGQRLSRDALRTQLDSAGYRHVDQVMEHGEYATRGALLDLFPMGSELPYRLDFFDDEIDSLRVFDVDSQRTLEEVEAINLLPAHEFPTDKAAIELFRSQWRDTFEVKRDPEHIYQQVSKGTLPAGIEYWQPLFFSEPLPPLFSYFPANTLLVNTGDLETSAERFQADTLARFENRGVDPMRPLLPPQSLWLRVDELFSELKNWPRVQLKTEHLPTKAANANLGFQKLPDLAVQAQQKAPLDALRKFLETFDGPVVFSVESEGRREALGELLARIKIAPQRIMRLDEASDRGRYLMIGAAEHGFVDTVRNLALICESDLLGERVARRRQDSRRTINPDTLIRNLAELHIGQPVVHLEHGVGRYAGMTTLEAGGITGEYLMLTYANDAKLYVPVSSLHLISRYAGGAEENAPLHKLGGDAWSRARQKAAEKVRDVAAELLDIYAQRAAKEGFAFKHDREQYQLFCDSFPFETTPDQAQAINAVLSDMCQPLAMDRLVCGDVGFGKTEVAMRAAFLAVDNHKQVAVLVPTTLLAQQHYDNFRDRFANWPVRIEMISRFRSAKEQTQILAEVAEGKIDILIGTHKLLQSDVKFKDLGLLIVDEEHRFGVRHKERIKAMRANVDILTLTATPIPRTLNMAMSGMRDLSIIATPPARRLAVKTFVREYDSMVVREAILREILRGGQVYYLYNDVENIQKAAERLAELVPEARIAIGHGQMRERELERVMNDFHHQRFNVLVCTTIIETGIDIPTANTIIIERADHFGLAQLHQLRGRVGRSHHQAYAWLLTPHPKAMTTDAQKRLEAIASLEDLGAGFALATHDLEIRGAGELLGEEQSGSMETIGFSLYMELLENAVDALKAGREPSLEDLTSQQTEVELRMPSLLPDDFIPDVNTRLSFYKRIASAKTENELEEIKVELIDRFGLLPDPARTLLDIARLRQQAQKLGIRKLEGNEKGGVIEFAEKNHVNPAWLIGLLQKQPQHYRLDGPTRLKFIQDLSERKTRIEWVRQFMRELEENAIA

The assay covers variants of B1. Particulars: with rpob_ecoli rpoB.
For L499R, the “effect of a mutation on the interaction” value is on record as “decreasing interaction”.
